Experimental data from patent publication US20100093033.
pKd: −log10 of the molar value.

How the values were obtained:
[1] = target: Lactose repressor LacI (Escherichia coli) (UniProt P03023); conditions: CITED general LacO affinity, method not stated; printed as <10-12 M; cited from earlier work
[2] = target: LacI-HP1 fusion (Escherichia coli LacI; Drosophila melanogaster HP1a) (UniProt P03023); assay: cell_activity; conditions: sIgM loss; chromatin effects largely reversed by 250 uM IPTG
[3] = target: E47-LacI fusion (Escherichia coli LacI; E47 organism not stated) (UniProt P03023); assay: cell_activity; conditions: sIgM loss; almost reversed by 100 uM IPTG
[4] = target: HIRA-LacI fusion (Escherichia coli LacI; HIRA organism not stated) (UniProt P03023); assay: cell_activity; conditions: sIgM loss; untethered HIRA 1.7-fold
[5] = tested on: E2A (Gallus gallus); conditions: ChIP with anti-E2A vs IgG, normalized to ovalbumin

Substance	pKd [1]	activity (fold diversification vs GFP-LacI) [2]	activity (fold diversification vs GFP-LacI) [3]	activity (fold diversification vs GFP-LacI) [4]	binding signal (fold enrichment) [5]
PolyLacO at Igλ (about 80-100 repeats of 20 bp lac operator, 3.8 kb)	> 12.00	5.6	4.5	11	
rearranged VλR allele, DT40					17.6
